Measured values reported in patent US6528620B1, “Sid-polyamide fusions: a potent method of regulating gene expression” (University of Utah Research Foundation, priority 1999, dated 2003).
Residue numbers refer to the chain shown, from its start. Names and notes keep the numbering of the source. Where no end group is shown, it is not given here.

B1: LexA fused to SID 1-27 (other)
chain: MKALTARQQEVFDLIRDHISQTGMPPTRAEIAQRLGFRSPNAAEEHLKALARKGVIEIVSGASRGIRLLQEEEEGLPLVGRVAAGEPLLAQQHIEGHYQVDPSLFKPNADFLLRVSGMSMKDIGIMDGDLLAVHKTQDVRNGQVVVARIDDEVTVKRLKKQGNKVELLPENSEFKPIVVDLRQQSFTIEGLAVGVIRNGDWLMAAAVRMNIQMLLEAADYLERREREAE
notes: Carboxyl-terminal deletion of 30 amino acids from SID 1-57
B2: fusion between the first 35 amino acids of Mad1 and the GALDBD: first 35 amino acids of Mad1 fused to the GAL4 DNA binding domain (protein)
chain: MKLLSSIEQACDICRLKKLKCSKEKPKCAKCLKNNWECRYSPKTKRSPLTRAHLTEVESRLERLEQLFLLIFPREDLDMILKMDSLQDIKALLTGLFVQDNVNKDAVTDRLASVETDMPLTLRQHRISATSSSEESSNKGQRQLTVSMAAAVRMNIQMLLEAADYLERREREAEHGYASMLP
B3: VP16PAH2 (amino acids 251-404 of mSin3A encoding the PAH2 domain fused to the VP16 activation domain) (other)
chain: SKPSQLQAHTPASQQTPPLPPYASPRSPPVQPHTPVTISLGTAPSLQNNQPVEFNHAINYVNKIKNRFQGQPDIYKAFLEILHTYQKEQRNAKEAGGNYTPALTEQEVYAQVARLFKNQEDLLSEFGQFLPDANSSVLLSKTTAEKVDSVRNDH
notes: range 251-404; Prey of the directed two-hybrid assay in S. cerevisiae L40
B4: Mad1(L12P/A16P)His (other, human, UniProt Q05195 1-221, looked up)
chain: MAAAVRMNIQMPLEAPDYLERREREAEHGYASMLPYNNKDRDALKRRNKSKKNNSSSRSTHNEMEKNRRAHLRLCLEKLKGLVPLGPESSRHTTLSLLTKAKLHIKKLEDCDRKAVHQIDQLQREQRHLKRQLEKLGIERIRMDSIGSTVSSERSDSDREEIDVDVESTDYLTGDLDWSSSSVSDSDERGSMQSLGSDEGYSSTSIKRIKLQDSHKACLGL
modifications: 35S-methionine labelled (in vitro translated)
notes: Mutant Mad1 probe in the far Western blot; not shown: polyhistidine tag fused to the carboxyl terminus
B5: Mad1His: in vitro translated 35S-labeled Mad1 with a polyhistidine tag fused to its carboxyl terminus (protein)
chain: B4 chain with P12L, P16A
modifications: left off: small tags and cut ends
notes: in vitro translated 35S-labeled Mad1 with a polyhistidine tag fused to its carboxyl terminus
B6: Mad1(L12P/A16P)His: polyhistidine-tagged mutant Mad1 protein with L12P/A16P point mutations in the SID (protein)
chain: B4 chain
modifications: left off: small tags and cut ends
notes: polyhistidine-tagged mutant Mad1 protein with L12P/A16P point mutations in the SID
B7: GALSID(8-20) WT: amino acids 8-20 from Mad1 fused to the GAL4 DNA binding domain (protein)
chain: MKLLSSIEQACDICRLKKLKCSKEKPKCAKCLKNNWECRYSPKTKRSPLTRAHLTEVESRLERLEQLFLLIFPREDLDMILKMDSLQDIKALLTGLFVQDNVNKDAVTDRLASVETDMPLTLRQHRISATSSSEESSNKGQRQLTVSNIQMLLEAADYLE

Assays:
[1] = target: mSin3-HDAC corepressor complex; assay: cell-based or functional assay
[2] = test system: GAL4 DNA binding domain-responsive reporter; assay: Transcription assay, Gal4-14D luciferase reporter in 293 cells; assay type: cell-based; settings: relative to the GALDBD alone level, 24 h after transfection
Procedure: Transcription Assays—293 cells were grown in Dulbecco's modified Eagle's medium with 10% defined calf serum (HyClone). 2×10^5 cells were planted on 60-mm dishes and transfected with 200 ng of the Gal4-14D luciferase reporter (Ayer et al., Mol. Cell Biol. 16:5772-5781 (1996)) and 1 μg of the indicated expression vector. Cells harvested 24 h after transfection and luciferase and β-galactosidase activity measured according to the manufacturers' protocols (Promega and Tropix). Each transfection was performed at least twice in triplicate. Error shown is the standard of the mean.
To test whether this minimal thirteen residue interaction domain is sufficient to target a functional mSin3:HDAC corepressor complex to DNA, we fused amino acids 8-20 from Mad1 to the DNA binding domain of the yeast transcriptional activator GAL4 (GALDBD). The transcriptional activity of GALSID(8-20) WT was tested on a reporter containing four GAL4 binding sites cloned upstream of a minimal promoter (FIG. 6A). Consistent with our previous findings (Ayer et al., Mol. Cell. Biol. 16:5772-5781 (1996)), the GALDBD alone activates this reporter approximately 3-fold, and a fusion between the first 35 amino acids of Mad1 and the GALDBD repressed this level of reporter activity approximately 7-fold. […] Amino acids 10, 14, and 17 of the SID can be mutated to alanine without adversely affecting the interaction with PAH2 (FIG. 3). However, it is possible that these residues constitute a surface that interacts with other components of the mSin3-HDAC complex and/or components of the general transcriptional machinery. To test whether mutation of these residues may impair the ability of the SID to recruit a functional corepressor complex, we constructed a minimal SID containing the mutations Q10A, E14A, and D17A in the context of a GALDBD fusion (FIG. 6A).

[3] = target: B3; assay: directed yeast two-hybrid assay (LexA-SID with VP16PAH2, beta-galactosidase)
[4] = target: T1, LexA fused to amino acids 8-20 of wildtype Mad1 (bacterial; human, UniProt P0A7C2 1-202); assay: as above
T1 construct: also called SID 8-20; minimal SID
T1 sequence: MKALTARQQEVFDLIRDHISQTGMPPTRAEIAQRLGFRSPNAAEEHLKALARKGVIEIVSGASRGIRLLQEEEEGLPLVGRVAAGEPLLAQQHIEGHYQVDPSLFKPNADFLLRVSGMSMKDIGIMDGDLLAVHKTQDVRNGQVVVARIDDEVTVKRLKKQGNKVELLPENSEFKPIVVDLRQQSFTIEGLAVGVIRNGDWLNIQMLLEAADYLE

[5] = target: T2, LexA fused to amino acids 1-57 of Mad1 (bacterial; human, UniProt P0A7C2 1-202; Q05195 1-57); assay: as above
T2 construct: also called SID 1-57
T2 sequence: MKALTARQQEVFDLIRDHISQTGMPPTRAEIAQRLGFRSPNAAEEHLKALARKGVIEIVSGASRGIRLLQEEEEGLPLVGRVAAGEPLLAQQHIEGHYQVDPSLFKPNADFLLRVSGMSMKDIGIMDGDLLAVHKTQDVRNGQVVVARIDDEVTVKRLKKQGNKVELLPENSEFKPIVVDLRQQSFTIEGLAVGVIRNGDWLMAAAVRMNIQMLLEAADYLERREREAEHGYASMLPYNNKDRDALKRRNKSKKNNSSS

[6] = target: T3, GST-PAH2, a GST fusion to the PAH2 domain of mSIN3A (UniProt P08515 1-218 = GST; Q60520 300-383); assay: far Western blot, probe purified under native conditions
T3 construct: Expressed in bacteria, resolved by SDS-PAGE and immobilised on PVDF membrane
Procedure: Recombinant GST and GST-PAH2 were expressed in bacteria and purified on glutathione-Sepharose 4B (Amersham Pharmacia Biotech). […] The blots were blocked in far Western Buffer (PBS containing 0.1% Nonidet P-40, 1 mM EDTA, and 1 mM dithiothreitol) containing 5% nonfat dry milk for 1 h at 4° C. Purified probes were added to blots in 5 ml of far Western buffer containing 1% nonfat dry milk and incubated together at 4° C. overnight with rocking. Following washing with far Western buffer, the blots were air-dried and exposed 48 h for autoradiography.

[7] = target: T4, PAH2 domain of mSin3A (GST-PAH2) (Mus musculus, UniProt Q60520); assay: Far Western blot, 35S-labeled Mad1 probes on immobilized GST-PAH2; assay type: binding, mammalian
T4 construct: GST-PAH2, a GST fusion to the PAH2 domain of mSIN3A; made in house; host or cells: bacteria
T4 sequence (Q60520 300-383 limits assumed): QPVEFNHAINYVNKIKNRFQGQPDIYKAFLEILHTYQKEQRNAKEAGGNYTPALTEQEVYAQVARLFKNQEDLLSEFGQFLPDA
Procedure: (§1) Far Western Blotting—Mad1His and Mad1(L12P/A16P)His (Ayer et al., Cell 80:767-776 (1995)), which have a polyhistidine tag fused to their carboxyl termini, were translated in vitro in 50 μl reactions using the TNT coupled reticulocyte lysate system (Promega) and ^35[S]methionine (NEN Life Science Products) and were purified under native or denaturing conditions. Ni^2+-NTA agarose (Qiagen) was blocked with rabbit reticuocyte lysate (diluted 1:3 in PBS) for 30 min at 4° C. and then incubated with the in vitro synthesized Mad1His and Mad1(L12P/A16P)His for 30 min at 4° C. in PBS native or 6 M guanidine hydrochloride, 0.1 M NaH2PO4, and 0.01 M Tris, pH 8.0 (denaturating conditions) followed by extensive washing with the same buffers. The bound proteins were eluted in PBS containing 0.5 M imidazole and then dialyzed overnight against PBS to remove the imidazole and allow for renaturation. Recombinant GST and GST-PAH2 were expressed in bacteria and purified on glutathione-Sepharose 4B (Amersham Pharmacia Biotech). The blots were prepared by resolving 1 μg of GST-PAH2 on 15% SDS-PAGE, followed by transfer to PVDF membrane. The blots were blocked in far Western Buffer (PBS containing 0.1% Nonidet P-40, 1 mM EDTA, and 1 mM dithiothreitol) containing 5% nonfat dry milk for 1 h at 4° C. Purified probes were added to blots in 5 ml of far Western buffer containing 1% nonfat dry milk and incubated together at 4° C. overnight with rocking. Following washing with far Western buffer, the blots were air-dried and exposed 48 h for autoradiography.
To determine whether the interaction between Mad1 and mSin3A is direct, we used far Western blot assays. In these experiments GST-PAH2, a GST fusion to the PAH2 domain of mSIN3A, and GST alone were resolved by SDS-PAGE followed by transfer to a PVDF membrane. […] Equal efficiency of transcription and translation of these proteins was confirmed by SDS-PAGE followed by autoradiography to detect the proteins (data not shown). These protein probes were purified on Ni^2+-NTA agarose under native or denaturing conditions. […]

[8] = target: T5, GST (Schistosoma japonicum, UniProt P08515); assay: Far Western blot, 35S-labeled Mad1 probes on immobilized GST alone; assay type: binding; settings: probe purified under denaturing conditions
T5 construct: made in house; host or cells: bacteria
T5 sequence (P08515 whole entry): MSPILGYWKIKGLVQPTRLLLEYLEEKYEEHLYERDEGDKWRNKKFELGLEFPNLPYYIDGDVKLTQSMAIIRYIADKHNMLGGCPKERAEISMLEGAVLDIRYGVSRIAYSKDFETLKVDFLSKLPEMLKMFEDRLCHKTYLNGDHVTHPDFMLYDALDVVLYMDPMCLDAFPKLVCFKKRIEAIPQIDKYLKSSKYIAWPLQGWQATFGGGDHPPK
Procedure: as §1, with “Purified probes were added to blots in 5 ml of far Western buffer containing 1% nonfat dry milk and incubated together at 4° C. overnight with rocking. Following washing with far Western buffer, the blots were air-dried and exposed 48 h for autoradiography.” left out

[9] = probe purified under denaturing conditions and renatured

## fusion between the first 35 amino acids of Mad1 and the GALDBD (from UniProt P04386 1-147; Q05195 1-35)
[1]
  repression of a GAL4 DNA binding domain-responsive luciferase reporter in 293 cells: 7 fold

## GALSID Q10A, E14A, D17A: minimal SID containing the mutations Q10A, E14A, and D17A in the context of a GALDBD fusion (NIAMLLAAAAYLE; also: GAL4 DNA binding domain fusion; UniProt Q05195 8-20, looked up, variant Q10A E14A D17A)
[2]
  repression of reporter activity: repressed transcription to the same extent as the wild-type minimal SID

## B1
[3]
  fold better binding than SID 1-57 (relative beta-galactosidase activity): ~2 fold

## B2
[2]
  repression of reporter activity: approximately 7 fold

## B3
[4]
  binding result: binds
[5]
  binding result: binds

## B4
[6]
  binding result: no binding

## B5
[7]; [9]
  interaction with GST-PAH2: also interacted with GST-PAH2
[7]; probe purified under native conditions
  interaction with GST-PAH2: able to interact
[8]
  interaction with GST alone: not with GST alone

## B6
[7]; [9]
  interaction with GST-PAH2: did not interact
[8]
  interaction with GST alone: did not interact

## B7
[2]
  repression of reporter activity: repressed transcription to approximately the same level
[2]; listed as minimal thirteen amino acid SID
  repression of reporter activity: functions similarly to the longer 35-amino acid SID
